Test results from article PMC8235110, “Effective Tumor Targeting by EphA2-Agonist-Biotin-Streptavidin Conjugates” (Molecules, 2021).
“Also recorded” adds a separate entry of the source. Square brackets hold non-standard residues; d marks the D form. Peptide text beside a SMILES is read from it. * marks the point of attachment. 4‑CH3‑Tyr = 4-CH3-Tyr: 4-methyl-tyrosine, a non-natural residue; 2Benzofuroyl(3-Me,6,7-diOMe) = COc1ccc2c(C)c(C(=O)*)oc2c1OC; Phe(4-Cl) = N[C@@H](Cc1ccc(Cl)cc1)C(=O)O; Hyp = O=C(O)[C@@H]1C[C@@H](O)CN1

What was measured:
[1] = molecular target: T1, purified EphA2-LBD (Homo sapiens, UniProt P29317); experiment: reverse isothermal titration calorimetry (ITC); assay type: binding; conditions: reverse ITC titration with purified EphA2-LBD
T1 construct: made in house

[2] = molecular target: T2, EphA2-LBD (6xHis-EphA2 ligand-binding domain) (Homo sapiens, UniProt P29317); experiment: DELFIA displacement of biotinylated EphA2-binding reference peptide; conditions: DELFIA dose-response; listed as scrambled version of 135H11
T2 construct: made in house

[3] = test system: EphA2 in BxPC3 cells; experiment: EphA2 receptor degradation, Western blot, BxPC3; assay type: cell-based, human; conditions: 1 h; 147B5 50 nM to 200 nM with streptavidin 50 nM (n = 1 to 4); scrambled 200 nM; 135H12 50 and 200 nM monomer concentration; ephrinA1-Fc 22 nM monomer (1 μg/mL); total EphA2, anti-EphA2 blot, relative to DMSO, duplicate
From the text: (Table 1). […] In these cell-based assays, receptor activation and degradation could be simply monitored by detecting the ability of each agent to reduce EphA2 expression levels over time, after exposure of cells to test ligands. […] Negative controls were DMSO-treated cells or cells treated with the (scrambled 147B5)4-streptavidine complex (Figure 3).
For the control scrambled agent, we tested it at its maximal 4:1 molar ratio with streptavidin. For these experiments we treated cells with increasing concentrations of 147B5 (from 50 nM to 200 nM) in the absence or presence of streptavidin (50 nM). […]
Figure 4 Effect of 147B5 and its complexes with streptavidin at various ratios on EphA2 receptor degradation. […] (b) Densitometry analysis based on duplicate measurements of band intensities relative to the bands of DMSO-treated cells. * p ≤ 0.05, as determined by a one-way analysis of variance using Dunnett post-test analysis. […]
Cells were lysed with cell lysis buffer (20 mM Tris, pH 7.4, 120 mM NaCl, 1% Triton X-100, 0.5% sodium deoxycholate, 0.1% SDS, 1% IGEPAL, 5 mM EDTA), supplemented with EDTA-free Protease Inhibitor Cocktail and PhosStop (Sigma Aldrich) for 15 min on ice. […] Subsequently, Clarity Western ECL solution (BIO-RAD) was added to the blots prior to being imaged on a FluorChem (ProteinSimple) and analyzed with AlphaView software.

[4] = test system: EphA2 in MDA-MB-231 cells; experiment: EphA2 receptor degradation, Western blot, MDA-MB-231; assay type: cell-based, human; conditions: 1 h; 147B5 50 nM to 200 nM with streptavidin 50 nM (n = 1 to 4); scrambled 200 nM; 135H12 50 and 200 nM monomer concentration; ephrinA1-Fc 22 nM monomer (1 μg/mL); total EphA2, anti-EphA2 blot, relative to DMSO, duplicate
[5] = test system: EphA2; conditions: cited from earlier work
[6] = molecular target: 6xHis-EphA2 ligand-binding domain; experiment: DELFIA displacement assay; earlier-generation biotinylated EphA2-binding reference peptide captured on streptavidin-coated 96-well plates; 6xHis-EphA2-LBD and Europium-conjugated anti-6xHis antibody added together with the test agent at various doses; residual fluorescence read after washing
[7] = molecular target: 6xHis-EphA2 ligand-binding domain; experiment: ITC; reverse ITC titration with purified EphA2-LBD

T1 sequence (P29317 28-206 limits assumed): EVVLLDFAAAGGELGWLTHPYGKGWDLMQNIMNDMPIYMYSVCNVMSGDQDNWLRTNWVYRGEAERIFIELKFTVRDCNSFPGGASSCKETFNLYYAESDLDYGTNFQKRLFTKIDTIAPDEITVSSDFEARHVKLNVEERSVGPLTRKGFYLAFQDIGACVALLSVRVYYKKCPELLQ
Chain of 6xHis-EphA2 ligand-binding domain (P29317 whole entry, the tested form may be a part): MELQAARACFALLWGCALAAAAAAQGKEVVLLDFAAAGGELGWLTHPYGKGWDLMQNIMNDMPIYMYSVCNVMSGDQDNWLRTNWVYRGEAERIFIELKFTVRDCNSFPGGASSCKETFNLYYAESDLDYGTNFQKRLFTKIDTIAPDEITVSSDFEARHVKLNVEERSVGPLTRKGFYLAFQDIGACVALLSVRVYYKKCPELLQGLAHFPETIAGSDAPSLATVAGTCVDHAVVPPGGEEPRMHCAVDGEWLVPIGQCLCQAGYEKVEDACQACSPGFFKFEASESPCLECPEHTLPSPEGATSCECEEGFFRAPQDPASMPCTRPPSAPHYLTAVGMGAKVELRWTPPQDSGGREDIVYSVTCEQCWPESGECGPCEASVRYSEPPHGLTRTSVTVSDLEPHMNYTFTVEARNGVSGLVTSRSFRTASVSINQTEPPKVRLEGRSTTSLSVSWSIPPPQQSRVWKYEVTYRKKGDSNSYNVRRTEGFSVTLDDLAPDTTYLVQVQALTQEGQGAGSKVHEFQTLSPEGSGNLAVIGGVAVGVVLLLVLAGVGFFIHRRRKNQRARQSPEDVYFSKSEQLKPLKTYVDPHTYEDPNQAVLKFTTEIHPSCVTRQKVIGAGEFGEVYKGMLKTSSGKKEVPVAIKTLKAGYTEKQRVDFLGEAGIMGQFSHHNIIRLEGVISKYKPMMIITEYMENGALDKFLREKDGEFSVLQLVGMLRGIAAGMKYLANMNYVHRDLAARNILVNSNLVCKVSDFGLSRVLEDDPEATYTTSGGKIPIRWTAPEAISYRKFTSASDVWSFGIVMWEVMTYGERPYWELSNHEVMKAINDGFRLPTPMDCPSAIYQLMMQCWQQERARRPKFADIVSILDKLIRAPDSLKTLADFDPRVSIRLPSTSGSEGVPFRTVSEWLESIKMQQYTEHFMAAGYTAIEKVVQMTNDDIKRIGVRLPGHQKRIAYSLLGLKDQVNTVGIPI
T2 sequence (P29317 28-206 limits assumed): as the sequence (P29317 28-206 limits assumed) above

In the case of “(3-CH3,6,7-OCH3,Benzofuranoic acid)DP(4-CH3-Tyr)A(Hyp)LRG(4-Cl-Phe)PVA-GK(Biotin LC)-CONH2 [Scrambled-147B5, scrambled 135H11-biotinylated (control)]”, the “Kd (ITC)” value ([1]; N.B. = no binding detected by ITC) is reported as “N.B. (ITC)”, the “binding to EphA2-LBD by ITC (in words)” value ([1]; listed as 147B5 scrambled version) is reported as “no appreciable binding was detected” and the “binding to EphA2-LBD by ITC (in words)” value ([1]; listed as scrambled version of 147B5) is reported as “no binding detected”.

For `COc1ccc(C[C@H](NC(=O)[C@@H]2CCCN2C(=O)[C@H](CC(=O)O)NC(=O)c2oc3c(OC)c(OC)ccc3c2C)C(=O)N[C@@H](C)C(=O)N2C[C@H](O)C[C@H]2C(=O)N[C@@H](CC(C)C)C(=O)N[C@@H](CCCNC(=N)N)C(=O)NCC(=O)N[C@@H](Cc2ccc(Cl)cc2)C(=O)N2CCC[C@H]2C(=O)N[C@H](C(=O)N[C@@H](C)C(N)=O)C(C)C)cc1` [Scrambled-135H11] ({2Benzofuroyl(3-Me,6,7-diOMe)}-DPY(Me)A[Hyp]LRG[Phe(4-Cl)]PVA-NH2), the “inhibition in DELFIA (in words)” value [2] was “no inhibition”.

B1: ephrinA1-Fc: dimeric ephrinA1-Fc chimera, positive control (protein)
chain: DRHTVFWNSSNPKFRNEDYTIHVQLNDYVDIICPHYEDHSVADAAMEQYILYLVEHEEYQLCQPQSKDQVRWQCNRPSAKHGPEKLSEKFQRFTPFTLGKEFKEGHSYYYISKPIHQHEDRCLRLKVTVSGKITHSPQAHDNPQEKRLAADDPEVRVLHSIGHS
modifications: left off: Fc, end not stated, kept
notes: dimeric ephrinA1-Fc chimera, positive control
For B1, the “EphA2 receptor degradation in BxPC3 cells (in words)” value [3] is given as “nearly complete degradation of the EphA2 receptor”, the “EphA2 receptor degradation in MDA-MB-231 cells (in words)” value [4] is given as “significant degradation of the EphA2 receptor; also recorded: very effective in causing EphA2 degradation” and the “receptor degradation, agonistic effectiveness in cells (in words)” value ([5]; at nanomolar concentrations, ref [5],[28],[29],[30],[31],[34]) is given as “dramatically more effective as an agonist”. The “EphA2 dimer formation, activation, internalization, degradation (in words)” value ([5]; legend of schematic, no reference given) was “can efficiently induce dimer formation and receptor activation, internalization, and degradation”.

For {2Benzofuroyl(3-Me,6,7-diOMe)}-DP[4‑CH3‑Tyr]A[Hyp]LRG[Phe(4-Cl)]PVA-NH2 [Scrambled-135H11], the IC50 [6] was > 10000 nM.

B2: 147B5 (135H11-biotinylated) (peptide)
peptide: LAYPDAVPFRPGK
modifications: N-terminal 3-CH3,6,7-OCH3,Benzofuranoic acid; 4-CH3-Tyr at position 3; Hyp (trans 4-hydroxy-L-proline) at position 8; 4-Cl-Phe at position 9; K(Biotin LC) at position 13 (LC: long 6 atom hydrocarbon chain between the biotin and the amide bond); C-terminal amide (-CONH2)
B2 gave a Kd [7] of 117 nM.
